The text below walks through data of publication PMC5932218 (Structure (London, England : 1993), 2018).

In data set [1] the target is T1, calmodulin (CaM) (Homo sapiens, UniProt P0DP25). The data set is described as follows: Isothermal titration calorimetry of CaM binding to NaV IG peptides. The note with it: for effect of truncation of the IG peptide on CaM affinity: N- and C-terminally truncated IG peptides, Ca2+ present; for stoichiometry: 1:1 binding model.
In data set [2] the target is T1, calmodulin (CaM). The data set is described as follows: NMR analysis of Ca2+-loaded CaM binding to wild type versus mutant IG peptides. To be noted: 15N-enriched IG peptide with CaM, intermediate versus slow exchange.
Data set [3] deals with NaV1.5 inactivation gate peptide Q1483-A1529 (human) (UniProt Q14524). The data set is described as follows: NMR titration.
Data set [4] shares this target. The data set is described as follows: SEC-MALS. On the technique in general: In gel filtration, larger molecules generally elute earlier.
Data set [5] shares this target. Put plainly: SAXS.
Data set [6] concerns the target NaV1.2 inactivation gate peptide (aligned to NaV1.5 Q1483-A1529) (human). Put plainly: ITC. (Isothermal titration calorimetry measures the heat released or taken up as one component is titrated into another.)
For data set [7], the target named is NaV1.4 inactivation gate peptide (aligned to NaV1.5 Q1483-A1529) (human). Put plainly: ITC.
Data set [8] has as its target NaV1.5 inactivation gate peptide D1471-V1532 (full-length IG, 62 residues) (human) (UniProt Q14524). The data set is described as follows: ITC.
The target in data set [9] is NaV1.5 inactivation gate peptide Q1483-A1529 (human) (UniProt Q14524). Put plainly: ITC.
The target of data set [10] is NaV1.6 inactivation gate peptide (aligned to NaV1.5 Q1483-A1529) (human). The data set is described as follows: ITC.
Data set [11] in a line: Solubility of IG peptide in ITC buffers. To be noted: under higher ionic strength conditions. The format is physicochemical.
Data set [12] concerns calmodulin (CaM). The note with it: ref (15); cited from earlier work.
Setting [13] is: ITC, 20 mM TRIS, 50 mM NaCl, 1 mM CaCl2, pH 7.4, triplicate, ± SD.
Setting [14] is: ITC, in the presence of Ca2+, lower ionic strength buffer.

NaV1.5 inactivation gate peptide D1471-V1532 (full-length IG, 62 residues) (human), sequence (Q14524 1471-1532, tags left off): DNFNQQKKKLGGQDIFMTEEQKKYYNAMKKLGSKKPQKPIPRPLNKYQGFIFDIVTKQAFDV

“T1526: NaV1.5 IG peptide with the C terminus truncated to T1526”: in the data set with calmodulin (CaM) [1] (ITC), the “effect of truncation of the IG peptide on CaM affinity” value was “reduced affinity into the μM range”.

For the substance “IG peptide double mutant: IG peptide with both the Y1494L (Site A) and F1522L (Site B) mutations”, the “affinity of CaM for the variant IG peptide relative to WT” value with calmodulin (CaM) [2] was “significant reduction in the affinity”.

As to “Q1483: NaV1.5 IG peptide with the N terminus truncated to Q1483”, in the data set with calmodulin (CaM) [1] (ITC), the “effect of truncation of the IG peptide on CaM affinity” value is recorded as “no effect on CaM affinity”.

By Kd is commonly meant the equilibrium constant for the complex coming apart. In the case of “H-GPGSQDIFMTEEQKKYYNAMKKLGSKKPQKPIPRPLNKIQGIVFDFVTQQA-OH [NaV 1.6]”, on calmodulin (CaM) [1] (setting [13]), the stoichiometry stood at 1.03 ± 0.01, the “ΔH” value was -9.0 ± 0.2 kcal/mol and the “ΔS (cal/mol•deg)” value was 2.5 ± 1.1 cal/mol•deg. In addition, on calmodulin (CaM) [1] (SD), binding was put at a Kd of 82 ± 20 nM.

For orientation: stoichiometry N means the number of molecules, sites or subunits per partner or assembly. On to “calmodulin (CaM), Ca2+-loaded unless stated (from UniProt P0DP25 1-149) (natural protein)”, for which the stoichiometry N in data set [3] worked out at 1; in data set [4], 1; in data set [5], 1; in data set [6] it was 1.02; in data set [7] it was 1.06; in data set [10], 1.03. The dH was -9.3 kcal/mol in data set [8] and -5.8 kcal/mol in data set [9]. In data set [10], the Kd amounted to 82 nM.

Take “D1471-V1532: 62-residue peptide corresponding to the full-length NaV1.5 inactivation gate (IG)”: the “CaM interaction in the absence of Ca2+” value in the data set with calmodulin (CaM) [1] (ITC, absence of Ca2+) is “no interaction was observed”. Moreover, in the data set with calmodulin (CaM) [1] (setting [14]), the ΔH is -9.3 ± 0.1 kcal/mol and the ΔS is reported as 5.2 ± 1.1 cal/mol•deg. Also, the solubility result in data set [11] is “limited solubility”.

In the case of “H-GPGSQDIFMTEEQKKYYNAMKKLGSKKPQKPIPRPQNKIQGMVYDLVTKQA-OH [NaV 1.4]”, on calmodulin (CaM) [1] (setting [13]), the stoichiometry worked out at 1.06 ± 0.01, the “ΔH” value is -8.8 ± 0.3 kcal/mol and the “ΔS (cal/mol•deg)” value is listed as 3.8 ± 1.3 cal/mol•deg.

Take “Y1494A: Y1494A site A mutant of the IG from a previous study”: in the data set on calmodulin (CaM) [12], the “effect of Y1494A site A mutation on CaM affinity” value is listed as “substantially reduced”.

Turning to “D1523: NaV1.5 IG peptide with the C terminus truncated to D1523”, the “effect of truncation of the IG peptide on CaM affinity” value with calmodulin (CaM) [1] (ITC) was “reduced affinity into the μM range”.
